Results taken from patent publication US20010041350A1.

Target: truncated polypeptides of the in vitro translation of the DNA ligase III cDNA
Experiment: pull-down: XRCC1-His incubated with [35S]methionine-labeled in vitro translation product, captured on NTA-agarose beads, eluted with 200 mM imidazole

- percent of translation product recovered with XRCC1-His: < 90%
Substance: Histidine-tagged recombinant XRCC1 protein (from UniProt P18887 1-633)
